Laboratory results taken from the supplement of paper PMC9170038.

Test system: MS2 coat protein
Assay: apparent KD of MS2 coat protein; designed switch direction (-1 OFF switch, 1 ON switch): -1; higher = weaker reporter binding
Summary of the method: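 The apparent KD reported per design is the median over clusters of curve fits to normalised cluster fluorescence. The RNA switches were transcribed on Illumina chips by stalled E. coli RNA polymerase. SNAP-549-labelled MS2 coat protein was titrated from 0.7 or 1.5 nM, doubling up to 3 µM, in Tris-HCl pH 7.5 buffer containing KCl, MgCl2, BSA, DTT, tRNA and Tween-20, with no input, 200 uM small-molecule ligand, or an oligonucleotide input.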

[1] = Eterna round: R95, input ligand: FMN 200 uM
[2] = Eterna round: R95, input ligand: microRNA oligo, concentration not stated
[3] = Eterna round: R95, input ligand: none
[4] = input ligand: microRNA oligo, concentration not stated

Sequence	apparent KD of MS2 coat protein (input ligand: FMN 200 uM) [nM]	apparent KD of MS2 coat protein (input ligand: none) [nM]	apparent KD of MS2 coat protein [2] [nM]	further results
AUAAUGUCAGGAUAUCAGUCGACUAGCUGCGGCUAGUCGACUGAGAAGGGACAUGAGGAUCACCCAUGUAGAUC [E4/18-A3] (Eterna round: R97, puzzle: Exclusion 4)	244	992		
GAAAAGCGAGGAUAUACAUGAGGAUCACCCAUGUAGCAAAAGCGUGCGGCGGUCGGAGGUAGAAGGCGCACAAC [Zamara] (puzzle: Exclusion 3)			51.8	apparent KD of MS2 coat protein [1]: 81.2 nM; apparent KD of MS2 coat protein [3]: 100 nM
AGAGUGUGAGGAUAUAUGGUAAAAGUGAAGAGAGAGGAGGAGUAGAAGGUACAUGAGGAUCACCCAUGUUUGGA [JR_Exclu4_Sub074] (puzzle: Exclusion 4)			38.1	
AACCUGAGGCAAAGCUUUAGGUGUACAUGAGGAUCACCCAUGUAGGAUAUGGUAGGCUUUGCUUACCAGAAGGACAUUGGCGUA [Mat - Exclusion NG 3 - Mod of JL - D42] (Eterna round: R96, puzzle: Exclusion NG 3)	345	91.7		apparent KD of MS2 coat protein [4]: 70.5 nM
UCGCUGCGAGGAUAUACGUUUGCGCGCUUUCGUUUGCGCGUACAUGAGGAUCACCCAUGUAGAAGGCGCGCUGC [Apr-15 SS2-7] (puzzle: Exclusion 2)			13.1	
GAUCAUGCAGGAUAUACAUGGAUCAUGAAAACAUGAAUUUCACAUGAGGAUCACCCAUGUAGAAGGGCAUGAUC [Omei Ex2 A11] (Eterna round: R97, puzzle: Exclusion 2)	13.9	293		
UACAUGAGGAUCACCCAUGUUUUGUCGUGUAUGGUAUUUAUCUAGGAUAUCAAUUGAUUUAUGUAUGAGAAGGAGAAUAUUAAU [JMF's solution 63] (Eterna round: R96, puzzle: Exclusion NG 3)	41.1	34.8		apparent KD of MS2 coat protein [4]: 34.9 nM
ACUAAUAGAGGAUAUACAGUUUAUUACAUGAGGAUCACCCAUGUUCUUCAAUGUAUAUAAGUAGAAGGCUAUGGAA [EX-5 Malc#4] (puzzle: Exclusion 5)			56.9	
GUCCUGGAAUAUCAGAAGCACAUGAGGAUCACCCAUGUCAUGGGUAGAUCAAUAAAUAAAGAUACUGCUCGUCUUAU [Cac sensor turnoff var1 sub4] (Eterna round: R97, puzzle: Sensor, turn-off variant 1)	837	228		
ACAUGGAAGCAGGAUAUGCUUGUUUAAUUGUUUGCAGAAGGGCUAACAUGAGGAUCACCCAUGUAAGAGGUCUA [JR_E6_Sub062] (puzzle: Exclusion 6)			16.8	
AUGAGCAGACGGAGAUCCAACAUGAGGAUCACCCAUGUCUCAAAAGCUUUUUGCUCAUCUUAUCGUACCUUGGUGCA [Mat - Sensor v3 - turn-off var 1 - JL Mod - D14] (puzzle: Sensor v3, turn-off variant 1)			13.2	apparent KD of MS2 coat protein [1]: 191 nM; apparent KD of MS2 coat protein [3]: 197 nM
GUGUAGUCAGGAUAUACAUGAGGAUCACCCAUGUGAAUAAGAUAGAAUAAGAUAAAGUGUAGAAGGGAUAGUGU [Excluse me!!! 22 - Jieux - Exclusion 3] (puzzle: Exclusion 3)			30.7	
UAAUACAAGUAAGGAUUCUACAUGAGGAUCACCCAUGUGCUCGUCUUAUAAAGUACUAUCACGAAAGUGAUAGUACA [Mat - Sensor v3 - turn-off var 1 - Eli Mod - D99] (puzzle: Sensor v3, turn-off variant 1)			148	apparent KD of MS2 coat protein [1]: 23.5 nM; apparent KD of MS2 coat protein [3]: 26.4 nM
UCGCUGCGAGGAUAUACAUGAGGAUCACCCAUGUACGGGUCCGGGUCUAAGUUGAUAAGUAGAAGGCGCAGUGA [JL Laongeedie mod 12] (puzzle: Exclusion 3)			114	
AAUUAUUGAUGAGGAUAUUGUGGUGAAACACGACGAGAAGGCAUUUGUCACAUGAGGAUCACCCAUGUGAGCCUUGUGCAUAUA [Ex NG1 #63] (Eterna round: R96, puzzle: Exclusion NG 1)	25.2	15.1		apparent KD of MS2 coat protein [4]: 18.7 nM
CGAUAUUAUGUCAGGAUAUACAUUGCGAAAGCAAUGUAGAAGGGACAUGAGGAUCACCCAUGUUCCUACUAUCG [Omei A 1] (puzzle: Brourd's mod of Exclusion 4)			11.9	

Sequence	apparent KD of MS2 coat protein (input ligand: FMN 200 uM) [nM]	apparent KD of MS2 coat protein (input ligand: none) [nM]	apparent KD of MS2 coat protein [2] [nM]	further results
GUCCUUAACGAGGAUAUCGGGCGGGUUUUUGUUUGAGAAGGCGUGACAUGAGGAUCACCCAUGUGGCGCGUGGG [-24.6, -21.7 kcal, A 19%] (Eterna round: R97, puzzle: Exclusion 6)	36.7	29.7		
UUAAAGGCGGAGGAUAUGUAGGCUUUCGAGUCGACAGAAGGCCGCACAUGAGGAUCACCCAUGUGGUCCUCCAA [EX6 A.20] (Eterna round: R97, puzzle: Exclusion 6)	219	51.8		
UUCCGGCGUGUAGGAUAUGGUUCCGUUUCGGUUCCAGAAGGACAUGAGGAUCACCCAUGUGCCUGUCGUCGGUCGUCACCGGGC [salish99_ExNG1_r04_219] (Eterna round: R96, puzzle: Exclusion NG 1)	22.3	15.3		apparent KD of MS2 coat protein [4]: 13.3 nM
UAGAUGGGAGGAUAUACAUAGAUACAGAUUCGUGUAGUGCUACAUGAGGAUCACCCAUGUAGAAGGCCCGUCUU [JL-ex2-2.21 Mayanne mod] (puzzle: Exclusion 2)			15.2	
UUAAUUAGCAGGCAAGAUCAUUACAUGAGGAUCACCCAUGUCGAGGAUAUCAGCUCGUGUAGAGCUGAGAAGGCGACAGCCUGC [ExNG3/13-A3] (Eterna round: R96, puzzle: Exclusion NG 3)	666	334		apparent KD of MS2 coat protein [4]: 207 nM
UGUAGAGUGGUAGGAUAUCCGUCUGUUUCAGUCGGAGAAGGACCACAGUCACUGGGUCCAUGUUUCAUGGAGACCUGAUCUACU [pwkr exNG1 F6.10] (Eterna round: R96, puzzle: Exclusion NG 1)	185	195		apparent KD of MS2 coat protein [4]: 49 nM
GCGCACCUACCAAAAGGUAGGCUAACAUGAGGAUCACCCAUGUAGGAUAUCGAUUGCUUUGCAGUCGAGAAGGACGUGAUGCGC [JL ENG3 3.80 Mod 19] (Eterna round: R96, puzzle: Exclusion NG 3)	25.9	23.3		apparent KD of MS2 coat protein [4]: 17.2 nM
UUUAAACAUGAGGAUCACCCAUGUUAGGAUAUACGCAUGCAGACACACACGGAUGCAAGUAGAAGGAACCAUGC [Design #7] (Eterna round: R97, puzzle: Exclusion 1)	23.6	22.9		
GAGUGACAUGAGGAUCACCCAUGUGAGGAUAUCGGACGGACCAAAUUAACAAUAUUUGCGAGAAGGCACAUCGG [Exclusion 1 V17] (puzzle: Exclusion 1)			82.2	
AAAACGGGAGGAUAUCGUAUCGUACACAUGAGGAUCACCCAUGUCCGGUGCAUCCUCAUCCGAGAAGGCCCAUAAA [Inisrarier] (puzzle: Exclusion 5)			31.4	apparent KD of MS2 coat protein [1]: 25.8 nM; apparent KD of MS2 coat protein [3]: 25.9 nM
AUUUAUGGAGGAUAUACUUGAGGAUCACCCAAGUGGAGUCCCUUUUGGGCGGUAAAUAGUAGAAGGCCGUCUUA [jl-ex3-4.48 ViennaUCT mod] (Eterna round: R97, puzzle: Exclusion 3)	20.9	16.3		
GAACCGCGAGGAUAUACAGUCGAGUCCAUUACGUGUCUCGGACUUGAGGAUCACCCAAGUAGAAGGCGUCUCAG [salish99_ex2_r4_634] (Eterna round: R97, puzzle: Exclusion 2)	96.3	188		
UUUAGUUCAGGAUAUGUAGUUUUAAACAUGAGGAUCACCCAUGUAGAACCUGAUCCUGCUACAGAAGGGAACAUUU [Mat - Exclusion 5 - Eli Mod - D14] (Eterna round: R97, puzzle: Exclusion 5)	32	18.2		
GUUGUUUAUGUAGGAUAUGCCUGGCGUGCCUUUGCAGAAGGACAUGAGGAUCACCCAUGUAACAUGAGGCUCACCCAUGUCGCA [salish99_ExNG1_r04_109] (Eterna round: R96, puzzle: Exclusion NG 1)	758	599		apparent KD of MS2 coat protein [4]: 244 nM
UGAUCCAAAGAGGAUAUGUCGGGCCAGGGCCCAACAGAAGGCUUUACAUGAGGAUCACCCAUGUUCGCGACAUG [EX6 A.22] (Eterna round: R97, puzzle: Exclusion 6)	481	558		
